{"source": "IntAct's records for PubMed 23901104", "parents": {"B1": {"name": "Vacuolar protein sorting-associated protein 33A (Homo sapiens), Q96AX1 (parent)", "chain": "MAAHLSYGRVNLNVLREAVRRELREFLDKCAGSKAIVWDEYLTGPFGLIAQYSLLKEHEVEKMFTLKGNRLPAADVKNIIFFVRPRLELMDIIAENVLSEDRRGPTRDFHILFVPRRSLLCEQRLKDLGVLGSFIHREEYSLDLIPFDGDLLSMESEGAFKECYLEGDQTSLYHAAKGLMTLQALYGTIPQIFGKGECARQVANMMIRMKREFTGSQNSIFPVFDNLLLLDRNVDLLTPLATQLTYEGLIDEIYGIQNSYVKLPPEKFAPKKQGDGGKDLPTEAKKLQLNSAEELYAEIRDKNFNAVGSVLSKKAKIISAAFEERHNAKTVGEIKQFVSQLPHMQAARGSLANHTSIAELIKDVTTSEDFFDKLTVEQEFMSGIDTDKVNNYIEDCIAQKHSLIKVLRLVCLQSVCNSGLKQKVLDYYKREILQTYGYEHILTLHNLEKAGLLKPQTGGRNNYPTIRKTLRLWMDDVNEQNPTDISYVYSGYAPLSVRLAQLLSRPGWRSIEEVLRILPGPHFEERQPLPTGLQKKRQPGENRVTLIFFLGGVTFAEIAALRFLSQLEDGGTEYVIATTKLMNGTSWIEALMEKPF", "partner": "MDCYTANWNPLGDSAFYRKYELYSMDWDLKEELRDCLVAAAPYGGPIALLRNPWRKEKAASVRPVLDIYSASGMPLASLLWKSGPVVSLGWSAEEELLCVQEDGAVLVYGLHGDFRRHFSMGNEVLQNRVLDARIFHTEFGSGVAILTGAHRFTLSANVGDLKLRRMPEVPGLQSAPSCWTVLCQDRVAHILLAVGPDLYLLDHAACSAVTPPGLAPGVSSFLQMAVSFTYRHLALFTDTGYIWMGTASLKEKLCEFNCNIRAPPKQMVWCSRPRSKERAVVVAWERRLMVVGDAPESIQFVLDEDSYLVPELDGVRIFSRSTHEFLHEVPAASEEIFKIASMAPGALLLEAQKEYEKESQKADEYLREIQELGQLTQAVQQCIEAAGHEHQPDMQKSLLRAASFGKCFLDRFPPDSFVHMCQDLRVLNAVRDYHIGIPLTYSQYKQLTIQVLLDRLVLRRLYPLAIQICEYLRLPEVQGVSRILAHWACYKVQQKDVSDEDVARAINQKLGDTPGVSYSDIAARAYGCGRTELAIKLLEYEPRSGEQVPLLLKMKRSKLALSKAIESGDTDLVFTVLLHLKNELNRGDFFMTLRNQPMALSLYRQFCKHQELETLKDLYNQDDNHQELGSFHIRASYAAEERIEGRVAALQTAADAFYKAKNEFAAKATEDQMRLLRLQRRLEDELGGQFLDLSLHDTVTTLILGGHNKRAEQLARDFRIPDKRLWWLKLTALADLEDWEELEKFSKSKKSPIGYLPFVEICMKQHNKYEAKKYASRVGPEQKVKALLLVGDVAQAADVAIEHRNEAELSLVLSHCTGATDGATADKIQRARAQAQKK"}, "B2": {"name": "Vacuolar protein sorting-associated protein 16 homolog (Homo sapiens), Q9H269 (parent)", "chain": "B1 partner", "partner": "B1 chain"}}, "data": [{"variants_of": "B1", "settings": "with vps16_human VPS16, Q9H269", "values": [{"variant": "MAAHLSYGRVNLNVLREAVRRELREFLDKCAGSKAIVWDEYLTGPFGLIAQYSLLKEHEVEKMFTLKGNRLPAADVKNIIFFVRPRLELMDIIAENVLSEDRRGPTRDFHILFVPRRSLLCEQRLKDLGVLGSFIHREEYSLDLIPFDGDLLSMESEGAFKECYLEGDQTSLYHAAKGLMTLQALYGTIPQIFGKGECARQVANMMIRMKREFTGSQNSIFPVFDNLLLLDRNVDLLTPLATQLTYEGLIDEIYGIQNSYVKLPPEKFAPKKQGDGGKDLPTEAKKLQLNSAEELYAEIRDKNFNAVGSVLSKKAKIISAAFEERHNAKTVGEIKQFVSQLPHMQAARGSLANHTSIAELIKDVTTSEDFFDKLTVEQEFMSGIDTDKVNNYIEDCIAQKHSLIKVLRLVCLQSVCNSGLKQKVLDYYKREILQTYGPEHILTLHNLEKAGLLKPQTGGRNNYPTIRKTLRLWMDDVNEQNPTDISYVYSGYAPLSVRLAQLLSRPGWRSIEEVLRILPGPHFEERQPLPTGLQKKRQPGENRVTLIFFLGGVTFAEIAALRFLSQLEDGGTEYVIATTKLMNGTSWIEALMEKPF", "note": "[Y438P]", "effect of a mutation on the interaction": "disrupting interaction strength"}, {"variant": "MAAHLSYGRVNLNVLREAVRRELREFLDKCAGSKAIVWDEYLTGPFGLIAQYSLLKEHEVEKMFTLKGNRLPAADVKNIIFFVRPRLELMDIIAENVLSEDRRGPTRDFHILFVPRRSLLCEQRLKDLGVLGSFIHREEYSLDLIPFDGDLLSMESEGAFKECYLEGDQTSLYHAAKGLMTLQALYGTIPQIFGKGECARQVANMMIRMKREFTGSQNSIFPVFDNLLLLDRNVDLLTPLATQLTYEGLIDEIYGIQNSYVKLPPEKFAPKKQGDGGKDLPTEAKKLQLNSAEELYAEIRDKNFNAVGSVLSKKAKIISAAFEERHNAKTVGEIKQFVSQLPHMQAARGSLANHTSIAELIKDVTTSEDFFDKLTVEQEFMSGIDTDKVNNYIEDCIAQKHSLIKVLRLVCLQSVCNSGLKQKVLDYYKREILQTYGDEHILTLHNLEKAGLLKPQTGGRNNYPTIRKTLRLWMDDVNEQNPTDISYVYSGYAPLSVRLAQLLSRPGWRSIEEVLRILPGPHFEERQPLPTGLQKKRQPGENRVTLIFFLGGVTFAEIAALRFLSQLEDGGTEYVIATTKLMNGTSWIEALMEKPF", "note": "[Y438D]", "effect of a mutation on the interaction": "disrupting interaction"}, {"variant": "MAAHLSYGRVNLNVLREAVRRELREFLDKCAGSKAIVWDEYLTGPFGLIAQYSLLKEHEVEKMFTLKGNRLPAADVKNIIFFVRPRLELMDIIAENVLSEDRRGPTRDFHILFVPRRSLLCEQRLKDLGVLGSFIHREEYSLDLIPFDGDLLSMESEGAFKECYLEGDQTSLYHAAKGLMTLQALYGTIPQIFGKGECARQVANMMIRMKREFTGSQNSIFPVFDNLLLLDRNVDLLTPLATQLTYEGLIDEIYGIQNSYVKLPPEKFAPKKQGDGGKDLPTEAKKLQLNSAEELYAEIRDKNFNAVGSVLSKKAKIISAAFEERHNAKTVGEIKQFVSQLPHMQAARGSLANHTSIAELIKDVTTSEDFFDKLTVEQEFMSGIDTDKVNNYIEDCIAQKHSLIKVLRLVCLQSVCNSGLKQKVLDYYDREILQTYGYEHILTLHNLEKAGLLKPQTGGRNNYPTIRKTLRLWMDDVNEQNPTDISYVYSGYAPLSVRLAQLLSRPGWRSIEEVLRILPGPHFEERQPLPTGLQKKRQPGENRVTLIFFLGGVTFAEIAALRFLSQLEDGGTEYVIATTKLMNGTSWIEALMEKPF", "note": "[K429D]", "effect of a mutation on the interaction": "disrupting interaction"}, {"variant": "MAAHLSYGRVNLNVLREAVRRELREFLDKCAGSKAIVWDEYLTGPFGLIAQYSLLKEHEVEKMFTLKGNRLPAADVKNIIFFVRPRLELMDIIAENVLSEDRRGPTRDFHILFVPRRSLLCEQRLKDLGVLGSFIHREEYSLDLIPFDGDLLSMESEGAFKECYLEGDQTSLYHAAKGLMTLQALYGTIPQIFGKGECARQVANMMIRMKREFTGSQNSIFPVFDNLLLLDRNVDLLTPLATQLTYEGLIDEIYGIQNSYVKLPPEKFAPKKQGDGGKDLPTEAKKLQLNSAEELYAEIRDKNFNAVGSVLSKKAKIISAAFEERHNAKTVGEIKQFVSQLPHMQAARGSLANHTSIAELIKDVTTSEDFFDKLTVEQEFMSGIDTDKVNNYIEDCIAQKHSLIKVLRLVCLQSVCNSGLKQKVLDYYKREILQTYGYEHKLTLHNLEKAGLLKPQTGGRNNYPTIRKTLRLWMDDVNEQNPTDISYVYSGYAPLSVRLAQLLSRPGWRSIEEVLRILPGPHFEERQPLPTGLQKKRQPGENRVTLIFFLGGVTFAEIAALRFLSQLEDGGTEYVIATTKLMNGTSWIEALMEKPF", "note": "[I441K]", "effect of a mutation on the interaction": "disrupting interaction"}]}, {"variants_of": "B2", "settings": "with vp33a_human VPS33A", "values": [{"variant": "A669D", "effect of a mutation on the interaction": "decreasing interaction"}, {"variant": "R725E", "effect of a mutation on the interaction": "disrupting interaction"}]}]}
